For five molecules, encoding yield results are on record in US20230220589A1.

In assay [1] the target is M44-modified D NTAA target peptides. Put plainly: encoding assay; P2 G.
Assay [2] addresses M44-modified N NTAA target peptides. The experiment in a line: encoding assay; P2 G.
The target of assay [3] is M44-modified P NTAA target peptides. The experiment in a line: encoding assay; P2 G.
The target of assay [4] is M44-modified E NTAA target peptides. Put plainly: encoding assay; P2 V.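 Note: fraction of recording tags encoded.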
For assay [5], the target named is M44-modified G NTAA target peptides (M44-G-P2-peptide). The experiment in a line: encoding assay; P2 V.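 Note: fraction of recording tags encoded.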
Assay [6] has as its target M44-modified E NTAA target peptides. The experiment in a line: encoding assay; P2 W.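 Note: fraction of recording tags encoded.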
In assay [7] the target is M44-modified V NTAA target peptides. Put plainly: encoding assay; P2 V.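 Note: fraction of recording tags encoded.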
Assay [8] addresses M17-modified A NTAA target peptides. The experiment in a line: encoding assay; P2 G.
In assay [9] the target is M17-modified D NTAA target peptides. Put plainly: encoding assay; P2 G.
Assay [10] deals with M17-modified E NTAA target peptides. The experiment in a line: encoding assay; P2 G.
For assay [11], the target named is M17-modified F NTAA target peptides. The experiment in a line: encoding assay; P2 G.
The target in assay [12] is M17-modified G NTAA target peptides. The experiment in a line: encoding assay; P2 G.
Assay [13] addresses M17-modified H NTAA target peptides. Put plainly: encoding assay; P2 G.
Assay [14] deals with M17-modified I NTAA target peptides. Put plainly: encoding assay; P2 G.
Assay [15] deals with M17-modified L NTAA target peptides. The experiment in a line: encoding assay; P2 G.
Assay [16] has as its target M17-modified M NTAA target peptides. The experiment in a line: encoding assay; P2 G.
The target of assay [17] is M17-modified Q NTAA target peptides. Put plainly: encoding assay; P2 G.
In assay [18] the target is M17-modified S NTAA target peptides. The experiment in a line: encoding assay; P2 G.
For assay [19], the target named is M17-modified T NTAA target peptides. Put plainly: encoding assay; P2 G.
The target of assay [20] is M17-modified Y NTAA target peptides (M17-Y-P2-peptide). The experiment in a line: encoding assay; P2 G.
Assay [21] concerns the target M17-modified A NTAA target peptides. Put plainly: encoding assay; P2 V.
Assay [22] addresses M17-modified D NTAA target peptides. Put plainly: encoding assay; P2 V.
Assay [23] deals with M17-modified E NTAA target peptides. Put plainly: encoding assay; P2 V.
The target in assay [24] is M17-modified F NTAA target peptides. The experiment in a line: encoding assay; P2 V.
In assay [25] the target is M17-modified G NTAA target peptides. Put plainly: encoding assay; P2 V.
Assay [26] has as its target M17-modified H NTAA target peptides. The experiment in a line: encoding assay; P2 V.
The target in assay [27] is M17-modified I NTAA target peptides. The experiment in a line: encoding assay; P2 V.
In assay [28] the target is M17-modified L NTAA target peptides. Put plainly: encoding assay; P2 V.
Assay [29] deals with M17-modified M NTAA target peptides. Put plainly: encoding assay; P2 V.
Assay [30] addresses M17-modified N NTAA target peptides. The experiment in a line: encoding assay; P2 V.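 Note: fraction of recording tags encoded.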
Assay [31] concerns the target M17-modified P NTAA target peptides. Put plainly: encoding assay; P2 V.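 Note: fraction of recording tags encoded.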
Assay [32] deals with M17-modified Q NTAA target peptides. The experiment in a line: encoding assay; P2 V.
Assay [33] concerns the target M17-modified S NTAA target peptides. The experiment in a line: encoding assay; P2 V.
For assay [34], the target named is M17-modified T NTAA target peptides. Put plainly: encoding assay; P2 V.
Assay [35] has as its target M17-modified V NTAA target peptides. Put plainly: encoding assay; P2 V.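 Note: fraction of recording tags encoded.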
Assay [36] has as its target M17-modified W NTAA target peptides. The experiment in a line: encoding assay; P2 V.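 Note: fraction of recording tags encoded.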
Assay [37] deals with M17-modified Y NTAA target peptides (M17-Y-P2-peptide). Put plainly: encoding assay; P2 V.
Assay [38] concerns the target M17-modified A NTAA target peptides. Put plainly: encoding assay; P2 W.
The target of assay [39] is M17-modified D NTAA target peptides. The experiment in a line: encoding assay; P2 W.
Assay [40] has as its target M17-modified E NTAA target peptides. Put plainly: encoding assay; P2 W.
The target of assay [41] is M17-modified F NTAA target peptides. The experiment in a line: encoding assay; P2 W.
In assay [42] the target is M17-modified G NTAA target peptides. The experiment in a line: encoding assay; P2 W.
The target in assay [43] is M17-modified H NTAA target peptides. The experiment in a line: encoding assay; P2 W.
Assay [44] concerns the target M17-modified I NTAA target peptides. Put plainly: encoding assay; P2 W.
Assay [45] has as its target M17-modified L NTAA target peptides. The experiment in a line: encoding assay; P2 W.
Assay [46] has as its target M17-modified M NTAA target peptides. Put plainly: encoding assay; P2 W.
In assay [47] the target is M17-modified N NTAA target peptides. Put plainly: encoding assay; P2 W.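 Note: fraction of recording tags encoded.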
Assay [48] deals with M17-modified P NTAA target peptides. The experiment in a line: encoding assay; P2 W.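 Note: fraction of recording tags encoded.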
The target in assay [49] is M17-modified Q NTAA target peptides. Put plainly: encoding assay; P2 W.
The target in assay [50] is M17-modified S NTAA target peptides. The experiment in a line: encoding assay; P2 W.
Assay [51] concerns the target M17-modified T NTAA target peptides. The experiment in a line: encoding assay; P2 W.
Assay [52] addresses M17-modified V NTAA target peptides. The experiment in a line: encoding assay; P2 W.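 Note: fraction of recording tags encoded.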
Assay [53] concerns the target M17-modified W NTAA target peptides. Put plainly: encoding assay; P2 W.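 Note: fraction of recording tags encoded.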
The target in assay [54] is M17-modified Y NTAA target peptides (M17-Y-P2-peptide). The experiment in a line: encoding assay; P2 W.

Changes are numbered by the printed parent chain.

B1: engineered M44-L binder (SEQ ID NO: 31) (designed binder, not shown: small tags and cut ends; large carriers)
chain: QDSTQNLIPAPPLISVPLQPGFWTERFQGRWFLVGFAGNAVQKERQSRLTMQSLILELQEDNSYNITAINVRGQGCRYIISTLVPSSRPGQFTLGNIHSYPQIQSLDVQVADTDYDQFAMVFLQGTSENKQYFEVALAGRTKGLSDELKERFVSFAKSLGLKDNNIVFSVPTDQCIDN
For the molecule B1, the encoding yield in assay [1] turned out to be 0.01; in assay [2], 0.01; in assay [3], 0.02; in [4], 0.01; in assay [5], 0.01; in assay [6] it was 0.01.

B2: engineered M44-A binder (SEQ ID NO: 42) (designed binder, not shown: small tags and cut ends; large carriers)
chain: QVSVQPNFQQDKFLGRWFVAGLASNSSWDREKVAALSGAKMVVAPATDGGLNVTRTMLRKNQCETYTGLLQPAGSLGSYSWRSPHPGSTGSESVVETDYDQYALVYGQGSKGPGEDLRAAALWSRTQTPRAELKEKFTAFSKAQGFTEDTIVFLPQTDKCMTEQ
Turning to B2, the encoding yield turned out to be 0.01 in [1]; 0.01 in assay [2]; 0.02 in assay [3]; 0.03 in [4]; 0.01 in assay [5]; 0.01 in [7]. In [6], the encoding yield was determined as 0.02.

B3: engineered M17-Y binder (SEQ ID NO: 61) (designed binder, not shown: small tags and cut ends; large carriers)
chain: TVPDRSEIAGKWYVVALASNTEFYLREKDWVKSAMARISFLGEDELKVSSAVPSPNGCYKVERTWKKTSDDGEVYNSRAAKLKVEVLDTDYKSYAVIYATRVKDGRTDHQMILYSRSPEVSPAATAIFRKLAGERNYTDEMVAMLPRQEECTVDEV
With B3, the encoding yield came out at 0.01 in assay [8]; 0.01 in assay [9]; 0.02 in assay [10]; 0.06 in assay [11]; 0.01 in assay [12]; 0.03 in [13]. For the same molecule, the encoding yield was 0.03 in assay [14]; 0.02 in [15]; 0.01 in assay [16]; 0.02 in assay [17]; 0.01 in assay [18]; 0.03 in assay [19]. The encoding yield in assay [20] stood at 0.11; in assay [21] it was 0.02; in assay [22] it was 0.03; in assay [23], 0.01; in [24], 0.13; in assay [25] it was 0.01. For the same molecule, the encoding yield in assay [26] amounted to 0.04; in assay [27], 0.05; in assay [28], 0.02; in assay [29], 0.02; in [30], 0.02; in [31], 0.02. For the same molecule, the encoding yield in assay [32] was found to be 0.02; in assay [33] it was 0.02; in [34] it was 0.03; in assay [35], 0.01; in assay [36], 0.04; in assay [37] it was 0.22. Moreover, the encoding yield in assay [38] worked out at 0.02; in assay [39] it was 0.02; in assay [40], 0.01; in assay [41] it was 0.14; in [42], 0.01; in assay [43] it was 0.02. The encoding yield in assay [44] came out at 0.11; in assay [45], 0.03; in assay [46], 0.02; in assay [47], 0.02; in [48], 0.03; in assay [49] it was 0.02. In addition, the encoding yield in assay [50] was found to be 0.02; in assay [51], 0.01; in [52], 0.05; in assay [53], 0.04; in [54] it was 0.12.

B4: upgraded binder after additional maturation round (SEQ ID NO: 62) (designed binder, not shown: small tags and cut ends; large carriers)
chain: B3 chain with E27G, W30R, A36V, L41Q, G105R, E119D
As to B4, the encoding yield in [8] was 0.02; in assay [9], 0.02; in assay [10], 0.02; in [11] it was 0.11; in [12], 0.01; in assay [13], 0.03. Further, the encoding yield was found to be 0.05 in [14]; 0.03 in [15]; 0.02 in [16]; 0.02 in [17]; 0.01 in assay [18]; 0.05 in assay [19]. For the same molecule, the encoding yield is 0.18 in [20]; 0.03 in [21]; 0.03 in assay [22]; 0.02 in assay [23]; 0.17 in assay [24]; 0.02 in assay [25]. Moreover, the encoding yield in [26] came out at 0.04; in assay [27], 0.07; in assay [28], 0.03; in [29], 0.03; in assay [30], 0.03; in assay [31], 0.03. Besides, the encoding yield in assay [32] came out at 0.02; in assay [33] it was 0.03; in assay [34] it was 0.04; in assay [35] it was 0.01; in assay [36], 0.08; in [37], 0.32. Further, the encoding yield in assay [38] came to 0.04; in assay [39], 0.04; in assay [40], 0.01; in [41], 0.18; in assay [42], 0.02; in [43], 0.04. For the same molecule, the encoding yield in assay [44] worked out at 0.14; in [45], 0.03; in assay [46] it was 0.04; in assay [47], 0.04; in [48], 0.03; in [49] it was 0.03. Further, the encoding yield in assay [50] worked out at 0.06; in [51] it was 0.03; in assay [52] it was 0.07; in assay [53] it was 0.1; in assay [54], 0.19.

B5: engineered M44-L binder (SEQ ID NO: 21) (designed binder, not shown: small tags and cut ends; large carriers)
chain: QVSVQPNFQQDKFLGRWFYAGHASNSSWYREKVAALSMAKLVVAPATDGGLNATETFLRKNQCETITSLLQPAGSLGSYSSRSPHGGSTWSTSVVETDYDQYALLYLQGSKGPGEDFRGAILASRTQTPRAELKEKFTAFSKAQGFTEDTIVFLPQTDKCMTEQ
As for B5, the encoding yield in [7] was determined as 0.01.
